Laboratory results as given in patent publication US20230340152A1 (published 2023).

Tests used:
[1] = molecular target: T1, Murine CD73 on cells (4T1, Jurkat mCD73 knock-in) (murine, UniProt Q61503 29-551); assay: flow cytometry, 4T1 / 4T1(mCD73 -shRNA)
T1 construct: whole, on cells; also called 4T1 (murine)
T1 sequence (looked up): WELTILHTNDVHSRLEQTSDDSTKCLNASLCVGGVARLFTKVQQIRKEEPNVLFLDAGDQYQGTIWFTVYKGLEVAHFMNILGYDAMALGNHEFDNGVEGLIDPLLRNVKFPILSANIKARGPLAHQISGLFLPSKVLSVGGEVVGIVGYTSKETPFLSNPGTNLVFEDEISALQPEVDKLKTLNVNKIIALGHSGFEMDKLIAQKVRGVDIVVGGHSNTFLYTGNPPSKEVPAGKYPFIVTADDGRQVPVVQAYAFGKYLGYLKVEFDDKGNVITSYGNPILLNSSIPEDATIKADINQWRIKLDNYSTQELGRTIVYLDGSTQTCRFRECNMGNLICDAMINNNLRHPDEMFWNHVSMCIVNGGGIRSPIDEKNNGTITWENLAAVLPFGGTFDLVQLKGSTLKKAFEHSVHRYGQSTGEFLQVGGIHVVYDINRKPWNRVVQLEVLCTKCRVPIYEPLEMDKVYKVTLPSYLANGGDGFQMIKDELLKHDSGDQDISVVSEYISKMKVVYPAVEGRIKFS

[2] = molecular target: T2, Human CD73 on cells (MDA-MB-231, Jurkat CD73 knock-in, NCI-H322) (human, UniProt P21589 27-549); assay: flow cytometry, MDA-MB-231 / MDA-MB-231(CD73-shRNA)
T2 construct: GPI-anchored native protein; also called native human CD73
T2 sequence: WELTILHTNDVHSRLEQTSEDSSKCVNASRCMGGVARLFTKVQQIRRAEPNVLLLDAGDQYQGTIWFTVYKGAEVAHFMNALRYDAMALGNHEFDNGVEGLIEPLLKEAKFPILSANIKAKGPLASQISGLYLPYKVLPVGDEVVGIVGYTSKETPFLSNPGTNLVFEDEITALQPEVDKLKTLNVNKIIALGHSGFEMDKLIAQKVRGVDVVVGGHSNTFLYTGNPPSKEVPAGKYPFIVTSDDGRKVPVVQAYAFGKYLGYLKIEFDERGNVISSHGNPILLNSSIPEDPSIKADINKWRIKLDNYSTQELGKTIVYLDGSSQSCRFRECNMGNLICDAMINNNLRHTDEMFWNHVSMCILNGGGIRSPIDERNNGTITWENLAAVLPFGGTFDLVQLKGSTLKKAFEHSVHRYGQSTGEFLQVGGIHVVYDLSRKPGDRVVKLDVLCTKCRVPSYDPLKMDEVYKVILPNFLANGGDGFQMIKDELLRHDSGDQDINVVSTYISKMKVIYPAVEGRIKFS

[3] = molecular target: T3, Cynomolgus CD73 on MK-1 cells (cynomolgus, UniProt A0A2K5V5U7 27-549); assay: flow cytometry on cells
T3 construct: whole, on cells; also called MK-1 (cyno)
T3 sequence: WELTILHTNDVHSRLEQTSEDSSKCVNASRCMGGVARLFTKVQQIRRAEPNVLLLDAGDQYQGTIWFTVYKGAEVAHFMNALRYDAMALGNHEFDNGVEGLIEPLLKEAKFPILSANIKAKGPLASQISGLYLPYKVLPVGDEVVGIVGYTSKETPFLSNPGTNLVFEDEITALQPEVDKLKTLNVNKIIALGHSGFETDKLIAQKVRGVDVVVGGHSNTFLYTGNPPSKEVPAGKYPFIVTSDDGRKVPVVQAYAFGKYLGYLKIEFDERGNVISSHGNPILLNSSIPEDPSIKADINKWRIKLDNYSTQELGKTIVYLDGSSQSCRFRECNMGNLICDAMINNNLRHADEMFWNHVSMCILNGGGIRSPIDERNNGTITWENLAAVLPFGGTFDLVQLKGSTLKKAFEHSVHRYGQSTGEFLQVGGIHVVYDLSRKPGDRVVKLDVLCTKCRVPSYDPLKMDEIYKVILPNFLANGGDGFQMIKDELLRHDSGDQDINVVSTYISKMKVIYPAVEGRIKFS

[4] = molecular target: T2, Human CD73 on cells (MDA-MB-231, Jurkat …); assay: flow cytometry, Jurkat (CD73 knock-in) / Jurkat
Murine CD73 ECD = molecular target: T4, Murine CD73 ECD (murine, UniProt Q61503 29-551, limits assumed); assay: SPR (ProteOn), antibody captured by anti-human Fc, CD73 ECD in mobile phase
T4 construct: extracellular domain; In-house recombinant ECD; also called murine CD73 extracellular domain; muCD73
T4 sequence (looked up): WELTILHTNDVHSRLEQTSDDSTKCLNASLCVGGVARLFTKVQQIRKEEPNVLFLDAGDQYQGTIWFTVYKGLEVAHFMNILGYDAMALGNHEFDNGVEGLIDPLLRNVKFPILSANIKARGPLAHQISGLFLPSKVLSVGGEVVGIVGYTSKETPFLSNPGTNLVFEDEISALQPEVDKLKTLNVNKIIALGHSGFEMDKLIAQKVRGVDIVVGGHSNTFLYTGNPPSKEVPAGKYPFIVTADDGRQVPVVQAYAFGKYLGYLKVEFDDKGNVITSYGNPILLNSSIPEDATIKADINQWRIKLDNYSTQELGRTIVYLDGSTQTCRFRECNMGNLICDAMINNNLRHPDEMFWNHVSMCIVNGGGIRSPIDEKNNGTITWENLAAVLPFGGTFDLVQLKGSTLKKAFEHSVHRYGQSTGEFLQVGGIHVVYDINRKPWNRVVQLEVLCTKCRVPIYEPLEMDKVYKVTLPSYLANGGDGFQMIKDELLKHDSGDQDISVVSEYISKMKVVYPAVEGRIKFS
Description: (§1) A ProteOn XPR36 instrument was used to characterize binding of MEDI9447 to human, murine, and cynomolgus CD73 ECD. MEDI9447 was affinity-captured using an anti-human Fc antibody. CD73 ECD was in the mobile phase. The association and dissociation of CD73 to MEDI9447 could be accurately described with the Langmuir 1: 1 model.

Human CD73 ECD = molecular target: T5, Human CD73 ECD (human, UniProt P21589 27-549); assay: as above
T5 construct: Biotinylated in some assays; also called human CD73 extracellular domain; huCD73
T5 sequence: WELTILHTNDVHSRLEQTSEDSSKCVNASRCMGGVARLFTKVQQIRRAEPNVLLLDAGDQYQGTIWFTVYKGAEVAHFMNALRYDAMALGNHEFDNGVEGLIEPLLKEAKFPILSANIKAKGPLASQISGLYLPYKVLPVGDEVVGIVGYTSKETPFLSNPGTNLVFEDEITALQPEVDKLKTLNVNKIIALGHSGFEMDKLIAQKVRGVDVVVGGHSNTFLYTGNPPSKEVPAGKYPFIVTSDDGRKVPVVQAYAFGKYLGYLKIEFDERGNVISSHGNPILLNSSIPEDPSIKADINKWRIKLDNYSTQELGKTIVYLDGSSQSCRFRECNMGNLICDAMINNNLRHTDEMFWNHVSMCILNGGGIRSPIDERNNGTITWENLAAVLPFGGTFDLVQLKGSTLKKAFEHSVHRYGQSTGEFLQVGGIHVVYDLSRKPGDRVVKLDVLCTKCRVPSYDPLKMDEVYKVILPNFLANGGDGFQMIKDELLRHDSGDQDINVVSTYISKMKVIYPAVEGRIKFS
Description: as §1

Cynomolgus CD73 ECD = molecular target: T6, Cynomolgus CD73 ECD (cynomolgus, UniProt A0A2K5V5U7 27-549); assay: as above
T6 construct: extracellular domain; also called cyno CD73
T6 sequence: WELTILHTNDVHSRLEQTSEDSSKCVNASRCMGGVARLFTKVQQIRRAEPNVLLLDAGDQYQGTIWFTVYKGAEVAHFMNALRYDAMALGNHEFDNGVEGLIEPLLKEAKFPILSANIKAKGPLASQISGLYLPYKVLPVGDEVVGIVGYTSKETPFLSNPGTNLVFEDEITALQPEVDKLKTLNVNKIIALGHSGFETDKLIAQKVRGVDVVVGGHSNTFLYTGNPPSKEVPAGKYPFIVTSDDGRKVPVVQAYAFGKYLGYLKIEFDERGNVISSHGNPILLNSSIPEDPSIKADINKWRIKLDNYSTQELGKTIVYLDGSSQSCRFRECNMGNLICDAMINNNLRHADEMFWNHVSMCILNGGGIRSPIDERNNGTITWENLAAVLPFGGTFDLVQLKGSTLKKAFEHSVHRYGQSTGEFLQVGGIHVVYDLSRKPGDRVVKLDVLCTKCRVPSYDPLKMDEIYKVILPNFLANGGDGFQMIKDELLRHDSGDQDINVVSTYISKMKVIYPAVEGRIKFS
Description: as §1

[5] = molecular target: T1, Murine CD73 on cells (4T1, Jurkat mCD73 …); assay: cell-based or functional assay
[6] = molecular target: T2, Human CD73 on cells (MDA-MB-231, Jurkat …); assay: cell-based or functional assay

B1: MEDI9447 (antibody, human IgG1, lambda, V domains shown)
VH: EVQLLESGGGLVQPGGSLRLSCAASGFTFSSYAYSWVRQAPGKGLEWVSAISGSGGRTYYADSVKGRFTISRDNSKNTLYLQMNSLRAEDTAVYYCARLGYGRVDEWGRGTLVTVSS
VL: QSVLTQPPSASGTPGQRVTISCSGSLSNIGRNPVNWYQQLPGTAPKLLIYLDNLRLSGVPDRFSGSKSGTSASLAISGLQSEDEADYYCATWDDSHPGWTFGGGTKLTVLG
notes: Human IgG1-TM (L234F, L235E, P331S), lambda light chain; also called clone 10.3 antibody; 73combo3
[1]
  Mean Fluorescence Intensity Ratio (MFIR): 3.9
[2]
  Mean Fluorescence Intensity Ratio (MFIR): 3.5
[3]
  Kd: 0.084 nM
[4]
  Mean Fluorescence Intensity Ratio (MFIR): 7.9
Murine CD73 ECD
  koff: 2.32e-06 s⁻¹
  kon: 2.41e+06 M⁻¹ s⁻¹
Human CD73 ECD
  koff: 1.06e-05 s⁻¹
  kon: 2.57e+06 M⁻¹ s⁻¹
Cynomolgus CD73 ECD
  Kd: 0.0065 nM
  koff: 1.76e-05 s⁻¹
  kon: 2.71e+06 M⁻¹ s⁻¹
[5]
  FabZAP internalization, EC50, 4T1: 0.0185 nM
[6]
  FabZAP internalization, EC50, MDA-MB-231: 0.0035 nM
